These results are taken from paper PMC5286520 (2017).

Bridge positions count the residues as written; N and C are the ends. Square brackets hold non-standard residues; d marks the D form. Ends that are not written are not given here.

Assay [1] addresses T1, V1aR (Homo sapiens, UniProt P37288). The assay is described as follows: radioligand displacement. In general terms: In a radioligand displacement assay an active substance lowers the binding of a labelled ligand.
The target in the next assay is T2, OTR (Homo sapiens, UniProt P30559).
T2 chain: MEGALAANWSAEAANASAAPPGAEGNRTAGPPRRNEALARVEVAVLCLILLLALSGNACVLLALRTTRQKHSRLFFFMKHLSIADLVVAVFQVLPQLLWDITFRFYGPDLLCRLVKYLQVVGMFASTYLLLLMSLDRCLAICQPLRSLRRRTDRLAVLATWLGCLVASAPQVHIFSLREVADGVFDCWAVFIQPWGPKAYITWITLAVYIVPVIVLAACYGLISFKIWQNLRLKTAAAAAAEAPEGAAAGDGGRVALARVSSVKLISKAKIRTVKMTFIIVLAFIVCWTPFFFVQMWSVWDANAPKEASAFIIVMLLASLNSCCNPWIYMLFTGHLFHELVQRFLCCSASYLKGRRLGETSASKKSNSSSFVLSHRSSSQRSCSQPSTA
Nature of the assay: radioligand displacement.

Another assay concerns the target T3, V1bR (Homo sapiens, UniProt P47901).
T3 chain: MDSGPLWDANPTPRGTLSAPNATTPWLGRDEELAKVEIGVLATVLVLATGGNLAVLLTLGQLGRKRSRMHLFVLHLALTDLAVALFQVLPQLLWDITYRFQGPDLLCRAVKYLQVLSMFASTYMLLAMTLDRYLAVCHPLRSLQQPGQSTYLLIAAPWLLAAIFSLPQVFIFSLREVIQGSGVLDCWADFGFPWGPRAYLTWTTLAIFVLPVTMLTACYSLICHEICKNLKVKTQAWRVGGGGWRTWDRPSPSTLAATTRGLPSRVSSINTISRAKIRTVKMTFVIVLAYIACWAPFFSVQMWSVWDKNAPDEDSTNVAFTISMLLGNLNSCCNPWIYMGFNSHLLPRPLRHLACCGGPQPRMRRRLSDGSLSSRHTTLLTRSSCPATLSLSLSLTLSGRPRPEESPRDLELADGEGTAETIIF
The assay is described as follows: radioligand displacement.

Assay [2] concerns the target T1, V1aR. Nature of the assay: Schild analysis (IP1 assay).

T1 sequence (P37288 whole entry): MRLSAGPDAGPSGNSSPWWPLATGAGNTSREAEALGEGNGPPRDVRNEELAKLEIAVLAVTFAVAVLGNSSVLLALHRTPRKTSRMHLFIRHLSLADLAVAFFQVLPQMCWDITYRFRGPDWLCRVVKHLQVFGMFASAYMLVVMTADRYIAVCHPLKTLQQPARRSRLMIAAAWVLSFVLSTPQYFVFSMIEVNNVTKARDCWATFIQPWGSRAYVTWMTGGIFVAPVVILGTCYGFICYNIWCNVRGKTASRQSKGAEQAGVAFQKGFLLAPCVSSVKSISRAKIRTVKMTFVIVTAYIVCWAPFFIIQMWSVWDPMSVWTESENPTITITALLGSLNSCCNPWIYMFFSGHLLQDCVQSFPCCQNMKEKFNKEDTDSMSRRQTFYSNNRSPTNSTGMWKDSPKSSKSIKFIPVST

As usually defined, the Ki is a measure of affinity in units of concentration, obtained from inhibition or displacement. CLITNCP[dR]G-NH2 (disulfide 1-6 (inferred)) [[D-Arg8]-inotocin]: the Ki is 1.3 nM in the assay with V1aR [1], above 4000 nM with OTR, above 100000 nM with V1bR and around 16 nM with V1aR [2].
